Key:
[1] = Nano-structure characterization of peptide conjugates (Tyndall effect, DLS, zeta potential, TEM); assay type: physicochemical; conditions: 50 μM in H2O (2% DMSO), sonicated 10 min; mean of 3 measurements
Procedure: The second-order rate constant for the labeling reactions between tetrazine 1 and Cys was determined at 25 °C in PB (30% MeCN, 20 mM, pH 8.0) under second-order conditions using a 6000+ (Quawell) UV-Vis spectrophotometer. The concentrations of cysteine and tetrazine were identical. The specific difference in absorption wavelength (300 nm) between 1 and Cys-1 was measured over time. The second-order rate constant k2 was calculated from the slope of a plot of (1/c – 1/c0) versus time.
5. Competitive labeling reaction with other nucleophilic amino acids
For the competitive labeling experiment, 10 equiv. (2 mM) of N-Fmoc-Lys, N-Fmoc-Arg, Ser, Tyr, and 1.3 equiv. […] The resulting solution was maintained at 25 °C and monitored by LC –MS. […]
Each voTz analogue (1.1 equiv.) was added to a 0.25 mL vial containing solvent. […] The chromatogram peak areas of all relevant Cys -containing species were integrated, and the yiel d was determined using the following equation: Yield (%) = Iproduct/(Istarting + Iproduct + Ioxidation + Iside product) × 100, where Istarting, Iproduct, Ioxidation, and Iside product respectively represent the average ion counts of remaining starting material, product, oxidized starting material and any side product, if present 2. […]
DLS analyses and particle zeta potential values were determined using a Nano ZS ZEN 3690 instrument (Malvern […]

B16F10 cells = experiment: Cell uptake by fluorescence imaging, B16F10; assay type: cell-based, Mouse; conditions: B16F10 pre-treated with 50-fold excess of unmodified RGD, 10 μM, 2 h
Procedure: B16F10 cells were cultured for 48 h. […]
12.1 Calculation of the fluorescence coefficient (F c)
The Fc was the radio calculated
12.2 Uptake calculation of the B16F10 cells […]
deviation were analyzed using Origin Pro 2015.
B16F10 cells, characterized by α vβ3
Following the incubation period, the
Subsequently, the cells were trypsinized and underwent three PBS rinses.
12 .4 Cell uptake analysis by fluorescence imaging

[2] = Accumulation of RGD-Dox at various time points in tumor tissues; assay type: in vivo, mice; conditions: for tissue level at time molar at 0.5 h / tissue level at time molar at 1 h / tissue level at time molar at 2 h / tissue level at time molar at 4 h / tissue level at time molar at 6 h: BALB/c nude, mouse, tumor tissue, iv, 3.67 umol⸱/kg
Procedure: 13. In vivo anticancer efficacy
13.1 The accumulation of RGD-Dox at various time points in tumor tissues When the tumor volume reached approximately 400 mm3, five mice in each group received an i.v. injection of 3.67 μmol⸱kg-1 RGD-Dox. After various time intervals, the mice were sacrificed, and tumor tissues were dissected. About 0.5 to 1 g of tissue was ground into a homogenate, and proteins were precipitated by the adding two volumes of acetonitrile (1 mL). After centrifugation, the supernatant was removed, concentrated to 100 µL, and 20 µL was used for HPLC–MS analysis. The RGD-Dox concentration in the sample was determined from a standard curve of the peak area of the characteristic absorption of RGD-Dox at 520 nm. […]

## COc1cccc2c1C(=O)c1c(O)c3c(c(O)c1C2=O)C[C@@](O)(C(=O)CO)C[C@@H]3O[C@H]1C[C@H](NC(=O)OCc2nnc(CCSC[C@@H]3NC(=O)[C@@H](Cc4ccc(O)cc4)NC(=O)[C@H](CC(=O)O)NC(=O)CNC(=O)[C@H](CCCNC(=N)N)NC3=O)nn2)[C@H](O)[C@H](C)O1 [RGD-Dox]
[1]
  average particle diameter (DLS): 168 nm
B16F10 cells
  cellular fluorescence (uptake) after blocking with unmodified RGD: negligible fluorescence
[2]; 3.67 μmol·kg^−1 i.v., 0-6 hours, HPLC–MS 520 nm, n = 5
  accumulation at the tumor tissue over time: continuous increase in the accumulation of RGD-Dox at the tumor site within the first 0-2 hours, followed by a gradual decrease
[2]; 6 h, Data 3
  accumulation of RGD-Dox in tumor tissues: 0.09596 nmol/g
[2]; Data 1
  tissue level at time molar at 0.5 h: 0.253 nmol/g
  tissue level at time molar at 1 h: 0.311 nmol/g
  tissue level at time molar at 2 h: 0.249 nmol/g
  tissue level at time molar at 4 h: 0.296 nmol/g
[2]; Data 2
  tissue level at time molar at 0.5 h: 0.122 nmol/g
  tissue level at time molar at 1 h: 0.321 nmol/g
  tissue level at time molar at 2 h: 0.239 nmol/g
  tissue level at time molar at 4 h: 0.245 nmol/g
[2]; Data 3
  tissue level at time molar at 0.5 h: 0.145 nmol/g
  tissue level at time molar at 1 h: 0.226 nmol/g
  tissue level at time molar at 2 h: 0.408 nmol/g
  tissue level at time molar at 4 h: 0.274 nmol/g
[2]; Data 4
  tissue level at time molar at 0.5 h: 0.161 nmol/g
  tissue level at time molar at 1 h: 0.407 nmol/g
  tissue level at time molar at 2 h: 0.321 nmol/g
  tissue level at time molar at 4 h: 0.16 nmol/g
[2]; Data 5
  tissue level at time molar at 0.5 h: 0.185 nmol/g
  tissue level at time molar at 1 h: 0.29 nmol/g
  tissue level at time molar at 2 h: 0.3 nmol/g
  tissue level at time molar at 4 h: 0.217 nmol/g
[2]; 6 h, Data 1
  tissue level at time molar at 6 h: 0.0949 nmol/g
[2]; 6 h, Data 2
  tissue level at time molar at 6 h: 0.0855 nmol/g
[2]; 6 h, Data 4
  tissue level at time molar at 6 h: 0.0867 nmol/g
[2]; 6 h, Data 5
  tissue level at time molar at 6 h: 0.129 nmol/g
